Assay results from patent publication US20140314793A1 (BIOINVENT INTERNATIONAL, published 2014).

How the values were obtained:
[1] = target: T1, intercellular cell adhesion molecule-1 (ICAM-1) on the surface of human cells (human, UniProt P05362 28-532); assay: FACS of bone marrow cells, patient 22
T1 construct: whole, on cells; Endogenous antigen; also called CD54

[2] = target: T1, intercellular cell adhesion molecule-1 …; assay: FACS of bone marrow cells, patient 17
[3] = target: T1, intercellular cell adhesion molecule-1 …; assay: FACS of bone marrow cells, patient 9
[4] = target: T1, intercellular cell adhesion molecule-1 …; assay: FACS of bone marrow cells, patient 6
[5] = target: T1, intercellular cell adhesion molecule-1 …; assay: FACS of bone marrow cells, patient 21
[6] = target: T2, ICAM-2 (recombinant) (UniProt P13598 25-223, limits assumed); assay: dose-dependent binding to recombinant protein (FIG. 12C b)
T2 sequence (looked up): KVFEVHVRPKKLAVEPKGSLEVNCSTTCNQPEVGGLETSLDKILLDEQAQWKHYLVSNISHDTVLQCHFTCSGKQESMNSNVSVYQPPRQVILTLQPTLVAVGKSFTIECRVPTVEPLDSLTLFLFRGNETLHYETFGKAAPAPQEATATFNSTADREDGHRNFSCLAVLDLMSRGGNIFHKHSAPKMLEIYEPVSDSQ

[7] = target: T3, ICAM-3 (recombinant) (UniProt P32942 30-485, limits assumed); assay: as above
T3 sequence (looked up): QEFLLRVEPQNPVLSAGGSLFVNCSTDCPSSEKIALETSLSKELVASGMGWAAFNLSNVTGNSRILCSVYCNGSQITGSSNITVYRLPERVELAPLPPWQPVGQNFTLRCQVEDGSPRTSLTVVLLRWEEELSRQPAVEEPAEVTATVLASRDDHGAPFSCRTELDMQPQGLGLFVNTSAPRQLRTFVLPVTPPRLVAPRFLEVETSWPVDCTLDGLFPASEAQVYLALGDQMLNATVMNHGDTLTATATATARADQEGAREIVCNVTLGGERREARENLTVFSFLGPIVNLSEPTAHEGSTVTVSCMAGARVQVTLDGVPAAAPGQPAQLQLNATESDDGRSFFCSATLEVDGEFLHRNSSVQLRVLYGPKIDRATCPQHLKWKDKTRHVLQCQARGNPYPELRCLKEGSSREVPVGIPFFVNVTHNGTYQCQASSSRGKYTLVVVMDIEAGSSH

[8] = target: T1, intercellular cell adhesion molecule-1 …; assay: FACS of bone marrow cells, patient 15
[9] = target: T1, intercellular cell adhesion molecule-1 …; assay: FACS of bone marrow cells, patient 4
[10] = target: T1, intercellular cell adhesion molecule-1 …; assay: FACS of bone marrow cells, patient 19:3
[11] = target: T1, intercellular cell adhesion molecule-1 …; assay: FACS of bone marrow cells, patient 19:1
[12] = target: T1, intercellular cell adhesion molecule-1 …; assay: FACS of bone marrow cells, patient 16
[13] = target: T1, intercellular cell adhesion molecule-1 …; assay: FACS of bone marrow cells, patient 10
[14] = target: T1, intercellular cell adhesion molecule-1 …; assay: FACS of bone marrow cells, patient 20
[15] = target: T4, recombinant ICAM-1 (UniProt P05362 28-480); assay: ELISA on recombinant ICAM-1, luminescence
T4 construct: also called recombinant ICAM-1 protein
T4 sequence (P05362 28-480 limits assumed): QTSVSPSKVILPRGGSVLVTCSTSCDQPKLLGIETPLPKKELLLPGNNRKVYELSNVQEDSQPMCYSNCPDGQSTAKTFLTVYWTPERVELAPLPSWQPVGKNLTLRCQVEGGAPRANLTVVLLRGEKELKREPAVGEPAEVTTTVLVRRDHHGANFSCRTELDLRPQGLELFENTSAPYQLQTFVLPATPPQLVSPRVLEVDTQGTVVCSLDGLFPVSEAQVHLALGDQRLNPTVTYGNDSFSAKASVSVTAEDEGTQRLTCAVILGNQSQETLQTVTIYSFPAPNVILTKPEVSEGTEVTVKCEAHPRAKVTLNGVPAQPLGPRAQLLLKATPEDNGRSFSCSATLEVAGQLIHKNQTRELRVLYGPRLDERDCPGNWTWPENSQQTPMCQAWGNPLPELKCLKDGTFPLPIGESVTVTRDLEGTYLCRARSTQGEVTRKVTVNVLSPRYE

[16] = target: T1, intercellular cell adhesion molecule-1 …; assay: saturation binding of radioiodinated IgG to Ramos cells, unlabelled IgG subtracted
Method: Specific binding was determined by subtracting binding in the presence of unlabeled competing protein from total binding.
Analysis was performed in triplicates.
The specific binding of [¹²⁵I]IgG to the cell surface was calculated by subtracting non-specific binding (binding in the presence of excess unlabelled IgG) from the total binding.

[17] = target: T1, intercellular cell adhesion molecule-1 …; assay: FACS of bone marrow cells, patient 13
[18] = target: T1, intercellular cell adhesion molecule-1 …; assay: FACS of bone marrow cells, patient 11
[19] = target: T1, intercellular cell adhesion molecule-1 …; assay: FACS of tumor cells incubated with serially diluted AF647-BI-505 after FcγR pre-block with human IgG (receptor occupancy)
Method: The experiment was repeated three times and mean MFI values were calculated and plotted as a function of antibody concentration. […] The curve was fitted using a five-parameter log-log curve and XLfit software. […] Cells received treatment in triplicate and the experiment was repeated three to five times. […] In vitro PCD and in vivo anti-tumor activity were plotted as a function of receptor occupancy using curve fitting equations and data generated and described above.

[20] = target: T1, intercellular cell adhesion molecule-1 …; assay: FACS of bone marrow cells, patient 18

T1 sequence (P05362 28-532): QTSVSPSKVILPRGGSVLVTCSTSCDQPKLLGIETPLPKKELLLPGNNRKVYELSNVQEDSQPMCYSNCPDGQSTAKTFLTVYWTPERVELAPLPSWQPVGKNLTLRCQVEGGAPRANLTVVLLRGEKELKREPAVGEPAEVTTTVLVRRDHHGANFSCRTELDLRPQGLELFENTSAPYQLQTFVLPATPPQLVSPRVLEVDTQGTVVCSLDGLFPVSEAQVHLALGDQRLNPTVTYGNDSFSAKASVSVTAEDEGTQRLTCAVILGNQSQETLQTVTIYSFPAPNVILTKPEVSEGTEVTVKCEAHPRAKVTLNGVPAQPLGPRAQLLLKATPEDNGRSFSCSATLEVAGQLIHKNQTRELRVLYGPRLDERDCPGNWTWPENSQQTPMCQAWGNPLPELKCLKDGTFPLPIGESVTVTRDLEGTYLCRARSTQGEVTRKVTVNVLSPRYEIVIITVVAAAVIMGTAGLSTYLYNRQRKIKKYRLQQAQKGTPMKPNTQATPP

B1: B11 IgG1 (BI-505), fully human anti-ICAM-1 antibody (antibody, V domains shown)
VH: EVQLLESGGGLVQPGGSLRLSCAASGFTFSNAWMSWVRQAPGKGLEWVAFIWYDGSNKYYADSVKGRFTISRDNSKNTLYLQMNSLRAEDTAVYYCARYSGWYFDYWGQGTLVTVSS
VL: QSVLTQPPSASGTPGQRVTISCTGSSSNIGAGYDVHWYQQLPGTAPKLLIYDNNNRPSGVPDRFSGSKSGTSASLAISGLRSEDEADYYCQSYDSSLSAWLFGGGTKLTVL
notes: That 6 is VH and 8 is VL follows only from the order 'VH and VL'; also called IgG B11
With B1 the “fold increase of BI-505 epitope on MM cells compared to normal B cells” value (“fold increase of BI-505 epitope” below) [1] was 6 fold, the “fold increase of BI-505 epitope” value [2] was 11 fold and the “fold increase of BI-505 epitope” value [3] was 18 fold. For the same binder, the “fold increase of BI-505 epitope” value [4] was 9 fold, the “fold increase of BI-505 epitope” value [5] was 4 fold and the binding result [6] was “no binding”. The binding result [7] was “no binding”, the “fold increase of BI-505 epitope” value [8] was 27 fold and the “fold increase of BI-505 epitope” value [9] was 9 fold. For the same binder, the “fold increase of BI-505 epitope” value [10] was 4 fold, the “fold increase of BI-505 epitope” value [11] was 10 fold and the “fold increase of BI-505 epitope” value [12] was 3 fold. For the same binder, the “fold increase of BI-505 epitope” value [13] was 4 fold, the “fold increase of BI-505 epitope” value [14] was 27 fold and the “EC50 (read off the curve)” value [15] was roughly 0.3 nM. For the same binder, the “EC50 (read off the curve)” value [16] was roughly 0.3 nM, the “fold increase of BI-505 epitope” value [17] was 47 fold and the “fold increase of BI-505 epitope” value [18] was 10 fold. For the same binder, the “EC50 (read off the curve)” value [19] was roughly 0.4 µg/mL and the “fold increase of BI-505 epitope” value [20] was 8 fold.
